Read-outs that look alike come from different tables or passages of the source.
Tests used:
[1] = in vivo; cited from earlier work
[2] = mouse, in vivo
human mu-opioid receptor [3] = biological target: T1, human mu-opioid receptor (Homo sapiens, UniProt P35372); format: cell-based
T1 construct: host or cells: CHO-K1

MOR [4] = biological target: MOR (Homo sapiens, UniProt P35372)
in vivo = settings: mouse, iv
MOR [5] = test system: MOR; parameters: species or system mice; settings: in vivo
human mu-opioid receptor [6] = biological target: T1, human mu-opioid receptor; assay: cell-based; format: binding

T1 sequence (P35372 whole entry): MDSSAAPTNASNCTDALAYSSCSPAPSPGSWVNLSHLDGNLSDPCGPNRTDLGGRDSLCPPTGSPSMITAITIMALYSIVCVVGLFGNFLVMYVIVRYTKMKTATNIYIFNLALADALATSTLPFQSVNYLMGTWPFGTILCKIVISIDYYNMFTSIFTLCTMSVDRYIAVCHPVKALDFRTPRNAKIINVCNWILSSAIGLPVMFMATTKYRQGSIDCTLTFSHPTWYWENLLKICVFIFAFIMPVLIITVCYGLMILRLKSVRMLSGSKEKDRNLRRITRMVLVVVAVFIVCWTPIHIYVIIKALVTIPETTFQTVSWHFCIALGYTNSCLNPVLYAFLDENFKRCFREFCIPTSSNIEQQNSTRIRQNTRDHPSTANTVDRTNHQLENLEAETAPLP
MOR (Homo sapiens, UniProt P35372), sequence (P35372 whole entry): as above

| Structure (SMILES) | half-life [1] | tolerability of intravenous injection [2] | distribution half-life (biexponential) ([2]; iv) | elimination (β) half-life (biexponential) ([2]; iv) | persistence in plasma ([2]; iv) | plasma half-life (time in which the concentration of dye is 50% of initial) ([2]; iv) | displacement of retained DRM-800 by naloxone (human mu-opioid receptor [3]) | Binding potential (BP) (MOR [4]) | half-life (in vivo; distribution half-life (biexponential)) | half-life (in vivo; elimination (β) half-life (biexponential)) | half-life (in vivo; plasma half-life (time in which the concentration of dye is 50% of initial)) | ratio of enhancement, wildtype to knockout mouse (MOR [5]) | enhancement in wildtype compared to knockout mice (MOR [5]; mouse) | IC50 (human mu-opioid receptor [6]) | Ki (human mu-opioid receptor [6]) |
| --- | --- | --- | --- | --- | --- | --- | --- | --- | --- | --- | --- | --- | --- | --- | --- |
| C=CCN1CC[C@]23c4c5ccc(O)c4O[C@H]2C(=O)CC[C@@]3(O)[C@H]1C5 [naloxone] | 60 to 80 min | – | – | – | – | – | – | – | – | – | – | – | – | – | – |
| C[C@@H](NC(=O)[C@@H](N)Cc1ccc(O)cc1)C(=O)N[C@@H](Cc1ccccc1)C(=O)NCC(=O)N[C@@H](Cc1ccc(O)cc1)C(=O)N1CCC[C@H]1C(=O)N[C@@H](CCCCN)C(=O)N[C@@H](CSC1CC(=O)N(CCNC(=O)CCCCC[N+]2=C(/C=C/C3=C(Oc4ccc(S(=O)(=O)O)cc4)C(=C/C=C4/N(CCCCS(=O)(=O)O)c5ccc(S(=O)(=O)O)cc5C4(C)C)/CCC3)C(C)(C)c3cc(S(=O)(=O)[O-])ccc32)C1=O)C(N)=O (stereo partly drawn) [DRM-800, [Lys7]dermorphin-IRDye800CW] | – | well-tolerated | 6.2 (4.9-8.6) min | 45 (33-68) min | at least one hour | 12.6 min | cannot be displaced even at high concentrations of naloxone | approximately 10 | 3.3 min | 70.8 min | 7.95 min | 3.1 × | higher enhancement in the wildtype mice compared to knockout mice | 3.5 nM | 0.64 nM |
